{
  "source": "paper PMC13570301",
  "about": "“Domain-dependent uncoupling of the co-chaperone and E3 ubiquitin ligase CHIP underlies heterogeneity in spinocerebellar ataxia 48” (The Journal of Biological Chemistry, 2026)",
  "proteins": {"B1": {"name": "CHIP P228S, recombinant, C-terminal His tag (enzyme, human, UniProt Q9UNE7-1 1-303, looked up)", "chain": "MKGKEEKEGGARLGAGGGSPEKSPSAQELKEQGNRLFVGRKYPEAAACYGRAITRNPLVAVYYTNRALCYLKMQQHEQALADCRRALELDGQSVKAHFFLGQCQLEMESYDEAIANLQRAYSLAKEQRLNFGDDIPSALRIAKKKRWNSIEERRIHQESELHSYLSRLIAAERERELEECQRNHEGDEDDSHVRAQQACIEAKHDKYMADMDELFSQVDEKRKKRDISDYLCGKISFELMREPCITPSGITYDRKDIEEHLQRVGHFDPVTRSPLTQEQLIPNLAMKEVIDAFISENGWVEDY", "notes": "CHIP (STUB1), human, SCA48-associated U-box variant P228S; source: PD-10 desalting for mass photometry, size exclusion for ubiquitination assays; not shown: His tag, C-terminal, kept"}, "B2": {"name": "CHIP P57L, recombinant, C-terminal His tag (enzyme, human, UniProt Q9UNE7-1 1-303, looked up)", "chain": "MKGKEEKEGGARLGAGGGSPEKSPSAQELKEQGNRLFVGRKYPEAAACYGRAITRNLLVAVYYTNRALCYLKMQQHEQALADCRRALELDGQSVKAHFFLGQCQLEMESYDEAIANLQRAYSLAKEQRLNFGDDIPSALRIAKKKRWNSIEERRIHQESELHSYLSRLIAAERERELEECQRNHEGDEDDSHVRAQQACIEAKHDKYMADMDELFSQVDEKRKKRDIPDYLCGKISFELMREPCITPSGITYDRKDIEEHLQRVGHFDPVTRSPLTQEQLIPNLAMKEVIDAFISENGWVEDY", "notes": "CHIP (STUB1), human, SCA48-associated TPR-domain variant P57L; source: PD-10 desalting for mass photometry, size exclusion for ubiquitination assays"}, "B3": {"name": "CHIP A67T, recombinant, C-terminal His tag (enzyme, human, UniProt Q9UNE7-1 1-303, looked up)", "chain": "MKGKEEKEGGARLGAGGGSPEKSPSAQELKEQGNRLFVGRKYPEAAACYGRAITRNPLVAVYYTNRTLCYLKMQQHEQALADCRRALELDGQSVKAHFFLGQCQLEMESYDEAIANLQRAYSLAKEQRLNFGDDIPSALRIAKKKRWNSIEERRIHQESELHSYLSRLIAAERERELEECQRNHEGDEDDSHVRAQQACIEAKHDKYMADMDELFSQVDEKRKKRDIPDYLCGKISFELMREPCITPSGITYDRKDIEEHLQRVGHFDPVTRSPLTQEQLIPNLAMKEVIDAFISENGWVEDY", "notes": "CHIP (STUB1), human, SCA48-associated TPR-domain variant A67T; source: PD-10 desalting for mass photometry, size exclusion for ubiquitination assays"}, "B4": {"name": "CHIP I53T, recombinant, C-terminal His tag (enzyme, human, UniProt Q9UNE7-1 1-303, looked up)", "chain": "MKGKEEKEGGARLGAGGGSPEKSPSAQELKEQGNRLFVGRKYPEAAACYGRATTRNPLVAVYYTNRALCYLKMQQHEQALADCRRALELDGQSVKAHFFLGQCQLEMESYDEAIANLQRAYSLAKEQRLNFGDDIPSALRIAKKKRWNSIEERRIHQESELHSYLSRLIAAERERELEECQRNHEGDEDDSHVRAQQACIEAKHDKYMADMDELFSQVDEKRKKRDIPDYLCGKISFELMREPCITPSGITYDRKDIEEHLQRVGHFDPVTRSPLTQEQLIPNLAMKEVIDAFISENGWVEDY", "notes": "CHIP (STUB1), human, SCA48-associated TPR-domain variant I53T; source: PD-10 desalting for mass photometry, size exclusion for ubiquitination assays"}, "B5": {"name": "CHIP G33S, recombinant, C-terminal His tag (enzyme, human, UniProt Q9UNE7-1 1-303, looked up)", "chain": "MKGKEEKEGGARLGAGGGSPEKSPSAQELKEQSNRLFVGRKYPEAAACYGRAITRNPLVAVYYTNRALCYLKMQQHEQALADCRRALELDGQSVKAHFFLGQCQLEMESYDEAIANLQRAYSLAKEQRLNFGDDIPSALRIAKKKRWNSIEERRIHQESELHSYLSRLIAAERERELEECQRNHEGDEDDSHVRAQQACIEAKHDKYMADMDELFSQVDEKRKKRDIPDYLCGKISFELMREPCITPSGITYDRKDIEEHLQRVGHFDPVTRSPLTQEQLIPNLAMKEVIDAFISENGWVEDY", "notes": "CHIP (STUB1), human, SCA48-associated TPR-domain variant G33S; source: PD-10 desalting for mass photometry, size exclusion for ubiquitination assays; not shown: His tag, C-terminal, kept"}, "B6": {"name": "CHIP R241W, recombinant, C-terminal His tag (enzyme, human, UniProt Q9UNE7-1 1-303, looked up)", "chain": "MKGKEEKEGGARLGAGGGSPEKSPSAQELKEQGNRLFVGRKYPEAAACYGRAITRNPLVAVYYTNRALCYLKMQQHEQALADCRRALELDGQSVKAHFFLGQCQLEMESYDEAIANLQRAYSLAKEQRLNFGDDIPSALRIAKKKRWNSIEERRIHQESELHSYLSRLIAAERERELEECQRNHEGDEDDSHVRAQQACIEAKHDKYMADMDELFSQVDEKRKKRDIPDYLCGKISFELMWEPCITPSGITYDRKDIEEHLQRVGHFDPVTRSPLTQEQLIPNLAMKEVIDAFISENGWVEDY", "notes": "CHIP (STUB1), human, SCA48-associated U-box variant R241W; source: PD-10 desalting for mass photometry, size exclusion for ubiquitination assays"}, "B7": {"name": "CHIP F37L, recombinant, C-terminal His tag (enzyme, human, UniProt Q9UNE7-1 1-303, looked up)", "chain": "MKGKEEKEGGARLGAGGGSPEKSPSAQELKEQGNRLLVGRKYPEAAACYGRAITRNPLVAVYYTNRALCYLKMQQHEQALADCRRALELDGQSVKAHFFLGQCQLEMESYDEAIANLQRAYSLAKEQRLNFGDDIPSALRIAKKKRWNSIEERRIHQESELHSYLSRLIAAERERELEECQRNHEGDEDDSHVRAQQACIEAKHDKYMADMDELFSQVDEKRKKRDIPDYLCGKISFELMREPCITPSGITYDRKDIEEHLQRVGHFDPVTRSPLTQEQLIPNLAMKEVIDAFISENGWVEDY", "notes": "CHIP (STUB1), human, SCA48-associated TPR-domain variant F37L; source: PD-10 desalting for mass photometry, size exclusion for ubiquitination assays"}, "B8": {"name": "CHIP R225∗, recombinant, C-terminal His tag (enzyme, human, UniProt Q9UNE7-1 1-224, looked up)", "chain": "MKGKEEKEGGARLGAGGGSPEKSPSAQELKEQGNRLFVGRKYPEAAACYGRAITRNPLVAVYYTNRALCYLKMQQHEQALADCRRALELDGQSVKAHFFLGQCQLEMESYDEAIANLQRAYSLAKEQRLNFGDDIPSALRIAKKKRWNSIEERRIHQESELHSYLSRLIAAERERELEECQRNHEGDEDDSHVRAQQACIEAKHDKYMADMDELFSQVDEKRKK", "notes": "CHIP (STUB1), human, SCA48-associated nonsense variant R225∗ (stop in place of R225, U-box domain lost); source: PD-10 desalting for mass photometry, size exclusion for ubiquitination assays"}},
  "key": {"[1]": {"molecular_target": "the molecule itself", "test": "mass photometry; Refeyn OneMP; CHIP at 50 nM final (a subset also at 20 nM and 100 nM) in 20 mM HEPES pH 8.0, 200 mM NaCl; self-association, oligomeric states by mass"}, "[2]": {"molecular_target": "the molecule itself", "test": "mass photometry; Refeyn OneMP; CHIP at 50 nM final (a subset also at 20 nM and 100 nM) in 20 mM HEPES pH 8.0, 200 mM NaCl; self-association, oligomeric states by mass", "remark": "listed apart in the source"}},
  "data": [
    {"protein": "B1", "values": [
      {"measurement": "binding result", "setting": "[1]", "value": "binds"}
    ]},
    {"protein": "B2", "values": [
      {"measurement": "binding result", "setting": "[1]", "value": "binds"}
    ]},
    {"protein": "B3", "values": [
      {"measurement": "binding result", "setting": "[1]", "value": "binds"}
    ]},
    {"protein": "B4", "values": [
      {"measurement": "binding result", "setting": "[1]", "value": "binds"}
    ]},
    {"protein": "B5", "values": [
      {"measurement": "binding result", "setting": "[1]", "value": "binds"}
    ]},
    {"protein": "B6", "values": [
      {"measurement": "binding result", "setting": "[1]", "value": "binds"}
    ]},
    {"protein": "B7", "values": [
      {"measurement": "binding result", "setting": "[1]", "value": "binds"}
    ]},
    {"protein": "B8", "values": [
      {"measurement": "stoichiometry N", "setting": "[2]", "value": 2}
    ]}
  ]
}
